According to PMC8247599:

Key:
[1] = target: Khc-FL (Drosophila melanogaster, UniProt P17210 1-975); test: EMSA
[2] = target: Khc 855-941 (Drosophila melanogaster, UniProt P17210 855-941); test: EMSA
Khc 855-941, sequence (P17210 855-941): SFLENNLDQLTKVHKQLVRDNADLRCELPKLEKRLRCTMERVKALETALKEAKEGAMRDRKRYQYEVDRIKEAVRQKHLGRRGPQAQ

Khc-FL, sequence (P17210 whole entry): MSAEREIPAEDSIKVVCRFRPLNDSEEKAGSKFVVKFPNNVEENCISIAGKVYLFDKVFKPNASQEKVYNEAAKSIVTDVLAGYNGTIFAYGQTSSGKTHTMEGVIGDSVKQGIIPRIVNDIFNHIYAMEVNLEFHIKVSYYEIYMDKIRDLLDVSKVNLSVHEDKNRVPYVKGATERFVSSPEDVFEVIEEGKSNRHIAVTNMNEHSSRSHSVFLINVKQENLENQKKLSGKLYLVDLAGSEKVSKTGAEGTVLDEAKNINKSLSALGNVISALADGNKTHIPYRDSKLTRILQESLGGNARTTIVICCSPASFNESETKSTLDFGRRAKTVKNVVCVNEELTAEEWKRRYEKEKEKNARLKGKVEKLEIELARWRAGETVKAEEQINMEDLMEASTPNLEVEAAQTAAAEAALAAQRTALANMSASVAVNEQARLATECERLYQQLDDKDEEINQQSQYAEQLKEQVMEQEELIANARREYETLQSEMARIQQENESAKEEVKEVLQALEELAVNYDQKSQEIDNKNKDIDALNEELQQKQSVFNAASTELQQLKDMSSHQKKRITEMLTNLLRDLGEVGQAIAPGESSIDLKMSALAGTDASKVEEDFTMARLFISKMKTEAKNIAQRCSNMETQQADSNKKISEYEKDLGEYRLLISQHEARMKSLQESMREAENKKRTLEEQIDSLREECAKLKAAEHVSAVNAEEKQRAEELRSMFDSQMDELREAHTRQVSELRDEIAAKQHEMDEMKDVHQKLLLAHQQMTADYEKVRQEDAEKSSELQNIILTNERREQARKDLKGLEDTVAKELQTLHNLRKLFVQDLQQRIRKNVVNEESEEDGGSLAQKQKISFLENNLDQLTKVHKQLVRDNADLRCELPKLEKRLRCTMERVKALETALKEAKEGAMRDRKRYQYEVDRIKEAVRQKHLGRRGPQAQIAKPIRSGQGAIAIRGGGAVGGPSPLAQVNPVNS

UUUUUUUUUUUUUUUUUUUUUUUUU (ssRNA) [oligo-(U25) RNA]
binding result [1]: binds
binding result [2]: binds
